Assay results reported in publication PMC3195435.

What was measured:
Details in all cases: 4% glycerol, 1 mM MgCl2, 1 mM DTT, 50 mM NaCl, 10 mM Tris-HCl pH 7.5, room temperature 30 min; EMSA on 4% native PAGE in 45 mM Tris-borate, 2 mM EDTA pH 8.3 at …
[1] = tested on: anti-FLAG M2 antibody (mouse); assay: EMSA
[2] = tested on: anti-FLAG M2 antibody (mouse); assay: bead pull-down, competition
[3] = tested on: anti-FLAG M2 antibody (mouse); assay: competition

Sequence	Kd [1]	IC50 [2]	binding signal (% inhibition of Flag-TRF2dB capture) [3]	binding signal (% release of bound Flag-TRF2dB) [3]
TCGATTTCCTTAGTTGTCTTCCTTAGTGAG [ABA]	80 nM	96 nM	45	–
TCGATTTCCTTAGTTGTCTTCCTTAGTTGTCTTCCTTAGTTGTCTTCCTTAGTGAG [3XABA]	–	–	62	36
